Experimental data as given in the domain aggregation screens of Martell et al. (2025).

Assay: soluble fraction after stress (log2 fold change); higher = more stays soluble; pooled small domains, quantitative proteomics
Details: stress: pH 4
Procedure, shortened: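 Small protein domains from pooled custom libraries were exposed to pH 4, then quantified with high-throughput quantitative proteomics. The fold change in how much of each domain remains soluble is read as aggregation propensity. It is given as log2, with higher values meaning more stayed soluble.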

| Sequence | soluble fraction (log2) |
| --- | --- |
| HMDGLDFIINENGKIANINEEGELLAKGENIMLGYYKDSISTNNTINNGWLHTGDIAKIDNDGFIYL | -0.123 |
| HMDGMNEELYQKFFALVGNPDEGKRISQAKAAQALGYSSAVVSAYKNRTYNGNIKAFEDAVQAWLKREERR | 0.141 |
| HMDGPELYESMKAIVPDQLDRTIFLTGGAYTPRAQEFLARVPNQQMEKPFEFEALRSLLARLT | -0.199 |
| HMDGTEVTTEPPGAQVEYEGKQFGPTPARIPGLVAGKSLHITLPGYLEVKPKIKAVPKDGEPLSFTLTAI | 0.224 |
| HMDGVEVVTKPAGAQIEFAGKSYGPSPVHIPGLVAGSQLILRLPGFQAATVRLRTAPDKSKALEYTLQPA | -0.0155 |
| HMDGVLVYKEGMTVADMATGLGKTIAQVVMKLMQLGIMANQNQSVDRETVELVALDFGYELKD | -1.39 |
| HMDGVSAEAVKSHIKTLIDGEGAKILSDDTLVDLLNAKGFDIARRTVAKYREAMGIGSSVQRRRQKKMG | -0.0273 |
| HMDGYLQLASKKNELITQLKTPPKPKRLFKDFEDRVYLITEYKVFVVSIFQNEFRLRPVNKDDFYRYTT | -0.134 |
| HMDGYTAVDKAVSDQYYTKENQLYFVSMGNFFSLGAKKIEGADISSFQILTTEYARDLQHLYFNGKV | -0.367 |
| HMDHFFSKYDSIVNHTVQKKETLFGISKKYGLTINEVIKFNPGIQIDKLKRRSVLIIPLMKKN | -0.0453 |
| HMDHKSALQELLAPRGLQPSYRLVEEAGPAHARVFTSEVSVDGVARGSGTGTTIKMSEQAAAREALASLG | 0.318 |
| HMDHKSQLQEWAQSTLGETPRYVTIAETGPDHDKELTVELIIGRKSYSIAKGKSKKQAEQSAARIALGLLM | -0.504 |
| HMDHKSSYWSVKEANLFPELLKQFGSQWSLISDKLGTKSTTMVRNYYQRNAAQLGWKSVVEEADFKRNA | 0.0284 |
| HMDHTYKHIELTGSSEKGIEEAVQNALAKASESVQNMRWLEVTDTRGHIEDGRVAHWQVTVKVGFTL | 0.22 |
| HMDHVEDRMVLEVVLKKLTEEERRIVMLHAVSGLKHREIAKALDIPLSTVLSKYKRTLKKLEAYLMEME | -0.936 |
| HMDIADKLTKREFEIFIAIAMNKSRFDIANELGLSAKTVSNGLTVIKRKLNAVPSQFSAIAAKHGYIG | -0.408 |
| HMDIAYFSNAELNDAFIQFLNMRQEAGKQLNGYQIQILTEKLERVADTDEDRISAVKNAIAGGWSNFYPPK | -0.366 |
| HMDIDASEVRGIISQYINEPDGRVSYILETIQKKYRYLPEEAIRIVAQELEVPLTQLFGVATFYAAFSL | 0.0192 |
| HMDIDLNTIKKITLDDIHAFLSYLTTTYHSKAATRARKASSIRVFFNYLSAKANLIEVNPAQNLETPKLD | 0.0886 |
| HMDIEELLSRSTDRLSRQTEIRRLLADAQGRPNISSLARRFKVARRTVIRDLQELIRRGEVPPEIYPK | -0.0624 |
| HMDIEFSDELRTFIDEWSKKEGGLVMMLHRIQNEYGFIPRTAAEKLSLISGIPLARIYGVITFYHFFKT | -1.01 |
| HMDIGNKIKELRTEQKMTQSDLAERLGVTKSSISSYENGSRLPSYDILLKIARIFKVSTDILLG | -0.637 |
| HMDIGTRQRIIAAAMELFRQKGMDGMSMRELAERAGVNKGLLHYYFTTKEAIFREVFVHQVEM | -0.0208 |
| HMDIIIEEGIDESLSTDDAILDLLGRASDAFSNAQKALLEGDLGSYQKLIEQAERLVKKATELLGENN | -1.1 |
| HMDIMNNILINRIKKILTEQNMSKADLSRLTGISNSSLSEYLNGKYEPKQDKIALIAKALHVSPAWLMGF | 0.166 |
| HMDINNTNFSRDVDNLLQNEEFIKWRIFRTKEWEDYWENFRKENPHMEDALQEAISRFNAVK | -0.736 |

| Sequence | soluble fraction (log2) |
| --- | --- |
| HMDINVDILPLLKTMTDTLRKVIELDIPFLKDARVQRVNSLDELLLRADITTAEKFRKVFEAYQIEADFGK | -1.05 |
| HMDIPDIGHNVRIEVDGHNGKTTHEGIILHPAAPNHITIKLANGYNASYKLEEIINIEILGELGDDSKI | -0.863 |
| HMDIPITFEQLPAKAQAFVKQYFKIEEIASVWRDDDIHDQDYKVYFNDGSEIEFYANGDWEEV | -0.468 |
| HMDIPTSAEAVRAYLASGFIKGIGEATARMLVDKFGAETLEIIKTEPMKLTKISGIGPKKAKMIHESYLEK | -0.0191 |
| HMDIRLMPGTVLTREYQGIEHRVTVAQDGQYEFEGRRYPSLSMIAREITGTRWSGPLFFGVK | 0.141 |
| HMDISEIEKRLLDFLEMPRSRKEIAEHLGIRTISYAIQTYITPLIDKKLVKMTIPESPRSHSQQYVRIN | -0.125 |
| HMDISRMNLSQTERAVLSVLDSQPLHTEEIIASADLRAGAIHSALISLQLKGLIKQLPGNLYVK | -0.035 |
| HMDITKPKISFEPGEMVRVVDGPFNDFSGVVEEVNYEKSKVRVAVLIFGRSTPVELQFNQIEK | -0.523 |
| HMDITTIIADVPGPKTQIKVDIKNTSLHIFGGMNFKKEIDIGDNKEIINIKYINGTLTVKLKT | -0.466 |
| HMDIVGAINKIESMKQDRYLAMHPYSITHSADGYYRTYLPADDGKRKQIKKKSKSDLEKVVIDYWTKRS | ≥ 0.43 |
| HMDIVKVYTTARAGETLASVAKRTGVDVARLAQWNDIPLKRAKQKLKTGKALALWVQREHASAYSNAPP | 0.22 |
| HMDIVQLSEKINVMKMEIPAQAIGKTVLEVNFRARFDLNIIAIENGGKLVEVIKPDYVFREGDILFLSGS | -1.31 |
| HMDIYENIDKELSKQGKSRRKLAIAAGIPPSTFQSMMERKRGLSVENLRKIAEVLNLKWYDLL | 0.135 |
| HMDIYKKFIIPATYFGSRLDHVLSELLPELSRSKIQNMIKQNLVMINGNHAAQKQKVVGDEEIIIKDI | -0.089 |
| HMDKAALGQKLRQARLDKGYTQQSLSEKADIGEVYLSEIERGLKMPSMNLFIKLITALDISADYILR | -1 |
| HMDKDTFGEFENVKLTEEEYNKLVEKLGENNTKLMIEELSTGIASKGYKYKSHYATILSWSRRRVTKLQER | -1.18 |
| HMDKEIKILKEKRLDDVQQAIRELSPQKRRVVEMKLYHNSTNQEVADKLAISVNTVKSLYTSALHDLRRIL | 0.109 |
| HMDKESQTMFRLLTGVSGVGPKVGLAILSVLSPDRVVLAISAGDHKAFTAASGVGPKLGQRIVLELKDKVG | -0.557 |
| HMDKEVLYVTVNDKKVKLDGKNHIFIDIFNYIDFDIKKPNGSIVLKLNGKNAGYMDEIKDGDKIEIYWDK | -0.277 |
| HMDKEVMEAVLRILYDDDFNPDQRDAILYFFVQELDQRTISEITGAKIGTVKKRIHDGLKKLRQKLAKEDL | -1.03 |
| HMDKGEQILQQALDKLPPKQRQVFEMRYFDEMPYREIATITETSEGALKASYHHAVKKIQQYISHL | -0.0313 |
| HMDKGQRGWINLVSVPTARVIIDGYDTGHETPLYGYEVERGKRKVTLISLDGTYERTYEIRIEPGTTTRVR | -0.947 |
| HMDKIEVVEVDMSKPYEDMTVTELQNVILDKLASNGPVTNQMKKDVSENIYHDSLVNWAKSF | -0.541 |
| HMDKIYVYTTRGQVIELPRGSTAIDFAYKIQTDIGNMIIAAIVNDKLVDANYVLHNKDRVKIVTS | -0.725 |
| HMDKLNKELVSRMMDDAAWKELSKDFPWTEQLLEKYMNYVDWKEISRNYNVVWTKSLLEKFKHRLDWHE | -1.1 |
| HMDKMIFFKNKENNDDNQLVKIGALLIHAAKIDEDFSQEEENIIKQTLINFGAGNKNINEIIEKAKKME | 0.33 |

| Sequence | soluble fraction (log2) |
| --- | --- |
| HMDKMVAVPNVRGIEASEAEATLIAQGLFVEVEKSDSEDANVAYGEVYAQTPKAGNRVEEGTTITIKVRTE | 0.229 |
| HMDKNNLHSVLQDVPGIGPKRMKELMRAFGSVEGMKKAGLEELAAVKGMNHKAAEALIQFFR | 0.297 |
| HMDKQGGWLTMAEAAEKLGVTHHVIRRLIKEKILPAEQVMRHAPHQIRIVDLESDAVAEALRHR | 0.155 |
| HMDKVVGSAGDVTSRITANSGEVKIDGQIWQARSYDETIAIEAGEKIEVFDLDGITLIVYPI | -1.19 |
| HMDLAENWKDDADITLAEYNAIRSRYKPGKLHRDTEFMIARDMLIRPETVLAIAHSRFSNVHTHPV | -0.771 |
| HMDLDEELDFLSDADESATKLDLARAYIDMGDKDGARDILAEVLEEGRSEQKREAQALLDSI | -1.76 |
| HMDLDPVEKLHLLSQLYVGQLKGSFVVKEKNQKTTIIGEVRELSHQTLSIRTNEGYRLIEVADILEIRLWE | -0.362 |
| HMDLDYSGIMNVLNQKYHITFYNNKKIQNLMPKLMIIMGYNSIINEIGHSKSLKALINSFEEKLKSYILT | -0.403 |
| HMDLEGLSNKELVTLRGQIQDDLNKWATEVGIIDPKNRPDDYNRALQSLEDAKRQRSAIDAKL | -0.38 |
| HMDLEIENYDLREILNLFKLDYNFDNVDLKRAQKIALKTHPDKSNLPKEYFMFFMKAFQIVQQIYYYRY | -1.09 |
| HMDLFREERRQAILDWLATAGRVSVAELSASFGVSEVTVRADLQALADRRLVVRTHGGAMMAG | -0.955 |
| HMDLHSQVFESYERKIREVLREGPLTFEEILHAFALKRHETVAQVITYLMDEGKMSDSGDGKLIYSG | -0.295 |
| HMDLIISDIRMPEMRGDDFLEWIKANELFKHIPVIMLSSEDSTTERIRLLEIGAEDYIVKPFNPMELKIR | -1.01 |
| HMDLLIFSPSLGQHVRDLKRVIDRLHQHGIPVRWQKAKLLREEIEYIGWTWKSGGLIDPTNV | 0.337 |
| HMDLMSTNEKLLYTMRYLISKSLDGAITEEEIRRLDRLIIENSQARAYYVEYLQIHTHLRKLMQQNPELK | -1.15 |
| HMDLRIIKTKKAIKTAFLNLLKENKYHNITISAISETALINRKTFYAHYETKDELYADVIEDALRVLSP | -1.04 |
| HMDLRIKEIMSERNVTSAWLAEKVGISKVAVSNIVTGKSSPSLDNLLKIADALNVSITTLIG | 0.305 |
| HMDLRYKVQYNFIDQGMMTKDELLKFSLNQDDVSKIAVFDNDSKQWKEIYAITEISEKLGIS | -1.57 |
| HMDLTIEQTTVLGKRLFSNALNSLGKKQRNIKKDAIESLLKRMNLKDMDQLYESIGIGDKSPLLMAQILL | 0.0239 |
| HMDLVIALNSRIRVIREPFFGKLGTVIDLPHKLHKMESGTMTRVAKIKFDDRTEEIIPRTNLEVILS | -0.35 |
| HMDLYEILGVRRGAGGGEIRRAYRRLARRYHPDVNPGDREAQARYALITRAFETLNDPERRRAYDAGVP | 0.0754 |
| HMDMAENEEYKVIMGQAQQLAEQFFPADDNTRRIMLGQLKLENYSLYLLTKQILDEATKGQAAAAN | -0.651 |
| HMDNFDVVLTSPGDQKVQVIKAVRSITGLGLKEAKDLVDGAPNTVKEGVKKLDAEEMLKQLTEAGATGEL | -0.366 |
| HMDNFQFIGYSQQQGQIAVAWIKSLDNGRLVRVEVSDSLEGWRVSDISAQGVNLTKGQQWLMLKRL | -1.37 |
